From WO2021180110A1 (dated 2021)

What was measured:
CD147-Tag fusion protein = target: T1, CD147-Tag fusion protein (human, UniProt P35613-2 22-205)
T1 sequence (looked up): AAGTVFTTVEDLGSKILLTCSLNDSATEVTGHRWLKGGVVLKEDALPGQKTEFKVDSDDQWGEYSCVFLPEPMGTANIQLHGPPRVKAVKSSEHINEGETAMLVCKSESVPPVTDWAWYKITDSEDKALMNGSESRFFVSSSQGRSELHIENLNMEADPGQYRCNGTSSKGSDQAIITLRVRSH

CD147-his fusion protein = target: T2, CD147-his fusion protein (human, UniProt P35613 22-205)
T2 sequence: T1 sequence (looked up)

[1] = target: CD147 on Vero E6 host cells; experiment: cell-based or functional assay
cyclophilin A (CyPA) [2] = target: T3, cyclophilin A (CyPA) (UniProt P62937 1-165)
T3 sequence (P62937 whole entry): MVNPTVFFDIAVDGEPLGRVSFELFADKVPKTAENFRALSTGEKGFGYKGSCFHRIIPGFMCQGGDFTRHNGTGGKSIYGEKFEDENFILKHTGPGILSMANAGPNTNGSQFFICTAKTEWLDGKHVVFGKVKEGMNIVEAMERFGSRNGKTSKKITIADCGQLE

cyclophilin A (CyPA) [3] = target: T3, cyclophilin A (CyPA); experiment: ELISA; format not described

B1: anti-human BASIGIN humanized antibody (antibody, V domains shown)
VH: EVQLVESGGGLVQPGGSLRLSCAASGFTFSNFWMNWVRQAPGKGLEWVSEIRLKSNNYATHYAESVKGRFTISRDDSKNTLYLQMNSLKTEDTAVYYCTSYDYEYWGQGTLVTVSA
VL: DIQMTQSPSTLSASVGDRVTLSCKASENVGTYVSWYQQKPGKAPKLLIYGASNRYTGVPSRFTGSGSGTDFTLTISSLQPEDFATYYCGQSYSYPFTFGSGTKLEIK
- IC50 (CD147-Tag fusion protein): 1.28 µg/mL
- IC50 (CD147-his fusion protein): 16.4 µg/mL
- EC50 of inhibition of cytopathic effect of COVID-19 virus on Vero E6 cells [1]: 36 µg/mL

B2: CD147 (receptor, human, UniProt P35613-2 22-205, looked up)
chain: T1 sequence (looked up)
notes: also called BASIGIN; EMMPRIN
- Kd (cyclophilin A (CyPA) [2]): ~8.7 µM
- koff (cyclophilin A (CyPA) [2]): 0.0008 s⁻¹
- EC50 (cyclophilin A (CyPA) [3]): 135 µg/mL
